# Target: MHC class II antigen on the Raji B cell line
# Experiment: cell-based or functional assay
substance,measurement,value
CD4:ζ (receptor),percent cytolysis of Raji (MHC class II+) cells by CTL expressing CD4:ζ,5%

# Source: US7094599
